Where “and” joins values, the source holds several entries; their conditions need not be identical. Equal values may be shown once.
T1: murine LAG3-Fc antigen (R&D Systems, 3328-L3-050) (murine, UniProt Q61790 24-442)
T1 construct: Bought reagent
T1 sequence (looked up): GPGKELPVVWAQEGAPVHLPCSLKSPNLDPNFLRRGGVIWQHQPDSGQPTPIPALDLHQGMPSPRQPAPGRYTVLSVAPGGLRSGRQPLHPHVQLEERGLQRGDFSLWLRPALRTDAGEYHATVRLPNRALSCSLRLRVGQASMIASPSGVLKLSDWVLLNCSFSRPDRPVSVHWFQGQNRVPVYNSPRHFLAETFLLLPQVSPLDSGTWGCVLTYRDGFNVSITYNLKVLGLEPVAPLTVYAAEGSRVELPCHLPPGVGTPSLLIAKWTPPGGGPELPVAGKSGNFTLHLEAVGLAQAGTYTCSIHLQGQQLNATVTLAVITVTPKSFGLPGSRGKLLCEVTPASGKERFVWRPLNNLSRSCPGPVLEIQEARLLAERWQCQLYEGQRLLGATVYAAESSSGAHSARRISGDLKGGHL

T2: human LAG3 on recombinant CHO cells (human, UniProt P18627 23-525)
T2 construct: whole, on cells; also called Lag3 cells; recombinant CHO cells expressing Lag3
T2 sequence (looked up): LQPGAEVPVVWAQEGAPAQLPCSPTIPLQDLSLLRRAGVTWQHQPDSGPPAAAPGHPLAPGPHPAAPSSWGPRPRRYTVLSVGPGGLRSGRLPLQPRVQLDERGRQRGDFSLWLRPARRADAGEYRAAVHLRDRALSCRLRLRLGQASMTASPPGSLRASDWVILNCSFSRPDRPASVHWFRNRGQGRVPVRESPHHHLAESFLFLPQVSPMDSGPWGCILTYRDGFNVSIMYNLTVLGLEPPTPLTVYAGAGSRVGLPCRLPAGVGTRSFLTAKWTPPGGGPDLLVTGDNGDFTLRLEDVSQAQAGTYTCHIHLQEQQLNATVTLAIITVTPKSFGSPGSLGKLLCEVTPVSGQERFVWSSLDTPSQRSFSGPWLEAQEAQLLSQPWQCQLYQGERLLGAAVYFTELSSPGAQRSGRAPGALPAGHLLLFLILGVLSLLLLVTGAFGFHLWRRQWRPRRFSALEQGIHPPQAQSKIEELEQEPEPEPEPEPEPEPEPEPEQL

T3: recombinant human LAG3 Fc Chimera Protein (R&D Systems, 2319-L3) (human, UniProt P18627 23-450)
T3 construct: Bought reagent
T3 sequence (looked up): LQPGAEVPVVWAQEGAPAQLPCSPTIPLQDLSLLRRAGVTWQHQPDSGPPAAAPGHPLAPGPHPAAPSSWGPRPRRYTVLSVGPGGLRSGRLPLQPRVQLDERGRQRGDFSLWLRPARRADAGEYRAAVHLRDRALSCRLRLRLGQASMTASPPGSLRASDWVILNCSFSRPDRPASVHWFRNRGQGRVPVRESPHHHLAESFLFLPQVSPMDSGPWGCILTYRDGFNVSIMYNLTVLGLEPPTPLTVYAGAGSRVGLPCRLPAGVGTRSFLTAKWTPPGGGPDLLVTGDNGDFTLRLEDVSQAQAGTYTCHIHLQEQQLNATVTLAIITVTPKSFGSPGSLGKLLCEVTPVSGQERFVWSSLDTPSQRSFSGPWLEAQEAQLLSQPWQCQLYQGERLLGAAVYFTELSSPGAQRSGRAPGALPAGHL


Key:
[1] = target: T4, soluble human Lag3-IgG1-Fc with biotinylated C-terminal Avi-tag (human, biotin on the C-terminal Avi-tag); assay: SPR (ProteOn XPR36), biotinylated LAG3-Fc captured on NLC chip, purified aVH as analyte, 25 C;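 note: One-shot kinetics in PBST running buffer, rates fitted by 1:1 Langmuir model fitting association and dissociation together, KD as koff/kon, biotinylated Fc surface as negative control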
T4 construct: also called LAG3-Fc-avi; biotinylated LAG3-Fc antigen

[2] = target: T1, murine LAG3-Fc antigen (R&D Systems, …); assay: ELISA using murine LAG3-Fc antigen
[3] = target: T2, human LAG3 on recombinant CHO cells; assay: cell ELISA on CHO cells expressing human LAG3;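 note: bivalent Fc-format binders titrated in threefold steps from 6 µg/mL, incubated with the cells 2 h at 4 °C, bound antibody detected by HRP-coupled anti-human IgG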
[4] = target: T3, recombinant human LAG3 Fc Chimera …; assay: ELISA, plate coated with human LAG3 Fc chimera
[5] = target: T3, recombinant human LAG3 Fc Chimera …; assay: SPR (Biacore), aVH-Fc captured by anti-human Fc, human LAG-3 Fc chimera as analyte, 25 C
[6] = target: T4, soluble human Lag3-IgG1-Fc with …; assay: A375 MHCII competition ELISA, biotinylated Lag3 250 ng/ml; competitor MHCII on A375 cells
[7] = target: T4, soluble human Lag3-IgG1-Fc with …; assay: A375 MHCII competition ELISA at 3 µg/ml, biotinylated Lag3 250 ng/ml; competitor MHCII on A375 cells

Row | Binder | Kd [1] | koff [1] | kon [1] | further results
1 | LAG3 21B11 aVH domain (VHH) VHH: EVQLVESGGGLVQPGGSLRLSCAASGFNIKDTCIGWVRRAPGKGTELVAEICQDIGYTRYADSVKGRFTISADTSKNTAYLQMNSLRAEDTAVYYCAADESVDNFKYWGQGTTVTVSS | 43 nM | 0.00217 s⁻¹ | 62700 M⁻¹ s⁻¹ | 
2 | LAG3 9B4 aVH domain (VHH) VHH: EVQLVESGGGLVQPGGSLRLSCAASGFNIKDTCIGWVRRAPGKGTELVAEICQDIGYTRYADSVKGRFTISADTSKNTAYLQMNSLRAEDTAVYYCAAVEVAEYFEYWGQGTTVTVSS | 86 nM | 0.00314 s⁻¹ | 36500 M⁻¹ s⁻¹ | 
3 | LAG3 19G3 aVH domain (VHH, also called P19G3) VHH: EVQLVESGGGLVQPGGSLRLSCAASGFNIKYQCIGWVRRAPGKGTELVAEICSYDGYTRYADSVKGRFTISADTSKNTAYLQMNSLRAEDTAVYYCAAEESVEGFIYWGQGTTVTVSS | 766 nM | 0.00466 s⁻¹ | 6080 M⁻¹ s⁻¹ | 
4 | LAG3 17D7 aVH domain (VHH) VHH: EVQLVESGGGLVQPGGSLRLSCAASGFNIKDTCIGWVRRAPGKGTELVAEICTDIGYTRYADSVKGRFTISADTSKNTAYLQMNSLRAEDTAVYYCAAGEGSSGFHYWGQGTTVTVSS | 311 nM | 0.00493 s⁻¹ | 15900 M⁻¹ s⁻¹ | 
5 | bivalent P11E2 aVH-Fc (Fc fusion) EVQLVESGGGLVQPGGSLRLSCAASGFNIKDTCIGWVRRAPGKGTELVAEICDDIGYTRYADSVKGRFTISADTSKNTAYLQMNSLRAEDTAVYYCASQEHQWSFKYWGQGTTVTVSSGGGGSGGGGSDKTHTCPPCPAPEAAGGPSVFLFPPKPKDTLMISRTPEVTCVVVDVSHEDPEVKFNWYVDGVEVHNAKTKPREEQYNSTYRVVSVLTVLHQDWLNGKEYKCKVSNKALGAPIEKTISKAKGQPREPQVYTLPPSRDELTKNQVSLTCLVKGFYPSDIAVEWESNGQPENNYKTTPPVLDSDGSFFLYSKLTVDKSRWQQGNVFSCSVMHEALHNHYTQKSLSLSPGK |  |  |  | binding result [2]: no binding; EC50 [3]: 0.0603 µg/mL and 0.8 nM; OD max [3]: 1.2 OD; EC50 [4]: 0.143 µg/mL and 1.9 nM; OD max [4]: 1.1 OD; koff [5]: 6.8e-05 s⁻¹; t1/2 [5]: 2.83 h; IC50 [6]: 0.155 µg/mL and 2.1 nM; % Inhibition [7]: 91%
6 | bivalent P11E9 aVH-Fc (Fc fusion) EVQLVESGGGLVQPGGSLRLSCAASGFNIKDTCIGWVRRAPGKGTELVAEICHDIGYTRYADSVKGRFTISADTSKNTAYLQMNSLRAEDTAVYYCAAEEHVASFEYWGQGTTVTVSSGGGGSGGGGSDKTHTCPPCPAPEAAGGPSVFLFPPKPKDTLMISRTPEVTCVVVDVSHEDPEVKFNWYVDGVEVHNAKTKPREEQYNSTYRVVSVLTVLHQDWLNGKEYKCKVSNKALGAPIEKTISKAKGQPREPQVYTLPPSRDELTKNQVSLTCLVKGFYPSDIAVEWESNGQPENNYKTTPPVLDSDGSFFLYSKLTVDKSRWQQGNVFSCSVMHEALHNHYTQKSLSLSPGK |  |  |  | binding result [2]: no binding; EC50 [3]: 0.0375 µg/mL and 0.5 nM; OD max [3]: 1.3 OD; EC50 [4]: 0.121 µg/mL and 1.6 nM; OD max [4]: 1.9 OD; koff [5]: 2.4e-05 s⁻¹; t1/2 [5]: 8.16 h; IC50 [6]: 0.086 µg/mL and 1.1 nM; % Inhibition [7]: 97.2%

Now from value to binder, other results behind:

Row | Kd [1] | koff [1] | kon [1] | Binder | further results
7 | 27 nM | 0.00383 s⁻¹ | 144000 M⁻¹ s⁻¹ | LAG3 P10D1 aVH domain (VHH, also called P110D1) VHH: EVQLVESGGGLVQPGGSLRLSCAASGFSIKDTCIAWVRRAPGKGTELVAEICEDIGYTRYADSVKGRFTISADTSKNTAYLQMNSLRAEDTAVYYCAAKEAGVGFDYWGQGTTVTVSS | 
8 | 5.1 nM | 0.000829 s⁻¹ | 162000 M⁻¹ s⁻¹ | LAG3 P9G1 aVH domain (VHH) VHH: EVQLVESGGGLVQPGGSLRLSCAASGFNIKDTCIGWVRRAPGKGTELVAEICQDIGYTRYADSVKGRFTISADTSKNTAYLQMNSLRAEDTAVYYCAGEEGATNFKYWGQGTTVTVSS | 
9 | 6.81 nM | 0.000656 s⁻¹ | 96300 M⁻¹ s⁻¹ | LAG3 P11E9 aVH domain (VHH) VHH: EVQLVESGGGLVQPGGSLRLSCAASGFNIKDTCIGWVRRAPGKGTELVAEICHDIGYTRYADSVKGRFTISADTSKNTAYLQMNSLRAEDTAVYYCAAEEHVASFEYWGQGTTVTVSS | 
10 | 36.7 nM | 0.00157 s⁻¹ | 42800 M⁻¹ s⁻¹ | LAG3 P11E2 aVH domain (VHH) VHH: EVQLVESGGGLVQPGGSLRLSCAASGFNIKDTCIGWVRRAPGKGTELVAEICDDIGYTRYADSVKGRFTISADTSKNTAYLQMNSLRAEDTAVYYCASQEHQWSFKYWGQGTTVTVSS | 
11 | 13.7 nM | 0.000387 s⁻¹ | 28200 M⁻¹ s⁻¹ | LAG3 P21A03 aVH domain (VHH, also called 21A3) VHH: EVQLVESGGGLVQPGGSLRLSCAASGFNIKDTCIGWVRRAPGKGTELVAEICEDIGYTRYADSVKGRFTISADTSKNTAYLQMNSLRAEDTAVYYCAANEHSVGFNYWGQGTTVTVSS | 
12 | 38.5 nM | 0.00217 s⁻¹ | 56200 M⁻¹ s⁻¹ | LAG3 P10C3 aVH domain (VHH) VHH: EVQLVESGGGLVQPGGSLRLSCAASGFNIKDTCIGWVRRAPGKGTELVAEICTDAGYTRYADSVKGRFTISADTSKNTAYLQMNSLRAEDTAVYYCAASESPSGFRYWGQGTTVTVSS | 
13 | 55 nM | 0.0138 s⁻¹ | 251000 M⁻¹ s⁻¹ | LAG3 P11A2 aVH domain (VHH) VHH: EVQLVESGGGLVQPGGSLRLSCAASSFNIKDTYIGWVRRAPGKGTELVAEIACHEGTTRYADSVKGRFTISCDTSKNTAYLQMNSLRAEDTAVYYCANTEYDDIFDYWGQGTTVTVSS | 
